This series is described as follows: soluble on expression in E. coli; label from the status in PepcDB or PDB records.
For “MKYGPSKDQIKQMAEEVREAAIRVKGEKELRMCPKTGHGSEWAGQLAVDANGAMNTYQPEGKYGDYGIGEDNRYLGTAKDWATLESGYQWIPGEFERYLMPEPHDFDALVDSAQKLTKDFVNVGQAKDPANVPAGTPTSVAPGTSAVDQPIRLSMGFTSDWSGHFADGFQRYLSEIPDVTRRQAVVAETLYEAAVAARDIYGAGREELGNIAKNAKLAIEGVEAGKSTGGCAGSSMATGFALIAAAATVAAGVSTLPISGPAVISGAMAAGNWTIVVGISSAIAAGSPLIPAPEKIELLASDVDGVIEKMKEALTKREKTVTDSEEAFAKKLGANSEMVEKNKVTGKDGGKSQDNAFFPRRPAMLDMSTDLKDLKDPATGFTHPVAAS”, the “soluble on expression in E. coli” value is on record as “not soluble”.

Turning to “MAEGEDVGWWRSWLQQSYQAVKEKSSEALEFMKRDLTEFTQVVQHDTACTIAATASVVKEKLATEGSSGATEKMKKGLSDFLGVISDTFAPSPDKTIDCDVITLMGTPSGTAEPYDGTKARLYSLQSDPATYCNEPDGPPELFDAWLSQFCLEEKKGGISELLVGSPSIRALYTKMVPAAVSHSEFWHRYFYKVHQLEQEQARRDALKQRAEQSISEEPGWEEEEEELMGISPISPKEAKVPVAKISTFPEGEPGPQSPCEENLVTSVEPPAEVTPSESSESISLVTQIANPATAPEARVLPKDLSQKLLEASLEEQGLAVDVGETGPSPPIHSKPLTPAGHTGGPEPRPPARVETLREEAPTDLRVFELNSDSGKSTPSNNGKKGSSTDISEDWEKDFDLDMTEEEVQMALSKVDASGELEDVEWEDWE”, the “soluble on expression in E. coli” value is given as “soluble”.

For the sequence “MSLGQEEAGKLLDSLAEPSKKAYRINSLKEGAVVYPQEEAVPGIPNAYYGEVSGKDPEWTAGLVYSQDPAAMFPAQAIPVKPGDKVLDLCAAPGGKSTALAQKLQGEGLLVANEISPSRAKILRENLERWGVSNAVVTNCDSFALSARFPGFFDAILVDAPCSGEGMFRKSEDAIKYWSQENVDLCADRQREILTEAVKMLKPGGYLLYSTCTFSPEEDEEIVSWLLDEYGFKLLPIAAEKAAPGRPEWGNGDASLANCARFWPQDGVGEGQFVASLQKAAGEESFAAEAGEVFSPVRKNKDKKKKGKGKNKGNRSSLERPSKEESCYISEAIAGFNWPESLASWPSQMLKSQDHVFVPALEPEQLKGIKVLSNGLELGILKKKRFEPSHQLAEVLGQVDQERVVDLTEEEYDHYLHGESLQVNSSLKGFVLVSCRGMIFSFGKLSGKGQLKNYYPKGLRQKGIITITTDPNSSSVDKLAAALEHHHHHH”, the “soluble on expression in E. coli” value is reported as “soluble”.

For the sequence “AHHHHHHGSIILDNHFHVDPNHGLFLEAVKQFQRAGGTHLIVVYKTAHDYGFPGLKAEDFMKAMDFHIELVEKINRETQVKAYAVVGVHPAEFDYLARNKGLEFARNEVMKALEYAQKLCLEGKAVGIGEVGRPHYEVPQQIWEVSIEIMKYAMELAKDADCAVQLHTESFNEEKFRELGEYIREVGIKPYKVVKHFSPPLVNVAKEVGVFPSIIASKKNIEEAIKQGNRFLMETDYIDDKRRPGAVLGPKTVPKRTKEFLQRGIFTEEDVYKIHVENPKKVYGIEI”, the “soluble on expression in E. coli” value is listed as “not soluble”.

For “MSLSNIETVPASIEMKPNPTITVFERSPDGGRGLARDMPVRWALEEVGQPYHVRRLSFEAMKEASHLAYQPFGQIPSYEQGDLILFESGAIVMHIAQHHSGLLPEDQLRRARTVAWMFAALNTIEPSILNFTTVWLFERNEPWHEARLARTKEQLLKRLDELSAWLGDREWLEGSFSAADILMICVLRRLESSGILKDYGNLLAYVERGKARPAFKRAFDAQLAVFTAASKNEGHHHHHH”, the “soluble on expression in E. coli” value was “soluble”.

In the case of “MGKMNHQDELPLAKVSEVDEAKRQWLQGMRHPVDTVTEPEPAEILAEFIRQHSAAGQLVARAVFLSPPYLVAEEELSVLLESIKQNGDYADIACLTGSKDDYYYSTQAMSENYAAMSLQVVEQDICRAIAHAVRFECQTYPRPYKVAMLMQAPYYFQEAQIEAAIAAMDVAPEYADIRQVESSTAVLYLFSERFMTYGKAYGLCEWFEVEQFQNP”, the “soluble on expression in E. coli” value is listed as “soluble”.

For the sequence “MKSEETQPFGITIEGVELSDGDVQFADKSLPLPFSTSIHTLSGEVSTLSSDSSEPARVKFEGEVAEYGLAQVNGTVHAWHPTRQTTINVRFRNLQIPEYSPYTVNFAGRKIADGTMDLDLDYTVNEEKLDGQNNLVLHDLKLGEKMESSDAMDLPLDLAIALLQDSDGLEHHHHHH”, the “soluble on expression in E. coli” value is “soluble”.

With “MSLSTLQAELASAKTEYEAKELEIRNLFSEKNTQERRLQTLVAQVAAKRKELSNALSQSSAETLTSELQSLESQYQACQTLINNISNYLTVKAGLDKKNASELVERAQKNLLNFIYNSIKSELKVLTDEQVELMKDFVVIEKLIRSELSDSVRQSYFLGCVFDELYGQLKGSDFTSHKEKMLKKYDAESSIG”, the “soluble on expression in E. coli” value is given as “soluble”.

Regarding “MSTQFKLPLASPLTHGREDFAVSPSNGEAVARLDAWPDWAEGRLVLVGPAGCGKSHLARAWAAAAGAVVVEAANPDAASVDLSALRGRAVLVEDADRRAQGAAVSDEALFHILNMAGVDGGTVLLTGRTAPLTWSAEVADLRSRLNALSVAEIAEPDDAVLEAVLRRAFAAAWWKPEPDLYPYLLARLPRSAAEAQAAAALLAEAAADGRRELTKALAREVLEGFEGDEGLEHHHHHH”, the “soluble on expression in E. coli” value is “not soluble”.

As for “MGSDKIHHHHHHAQKNAAAVTLNLAKAVTQSPKTVLMSELASDVRYFPLETTDNCLLGNECSIIYAGNSIIAGDAQTRSFYRFDKNGKFMNKIGRQGQGPEEYAVGLLFFTDPDNQKLYVQDFQDIICYGFNGKFLRRIPAPHLNMGTGAVDGQGSILYCDNNYFMRKDNPQQLFLIDENGKKLKIWKGYMEPGKKYGVNLSTRDVMYCYGGDIYFKPALENLIYKIDANRKKTLAWKFDCSGKDVDVSANEIDPGKRFQSIAVQQVFESDRYFFVLYVLKNESFVGLYDKQKKSFSNVIIKDDLAAGFDFTPPGTGLGNQLANARMVGYLSKGKRYSKALLPERKKELDELINRLDEEDNPVMVVVTLK”, the “soluble on expression in E. coli” value is reported as “not soluble”.

As for “MGSDKIHHHHHHMKVDLCARKQADAQASVGIIQREGGTARAYQCDIANPDSVRDFSVQLLEDSTPVDILVLSAAQWLEGALGEEDTDTDIVSTINSGLTGSILLTKTLLPSLRRSQSADILAMISVCGVPQFHDSIAHPAFFAAKHGLSGFSQNLAHHVAQENIRVTGFYPPDFEVTGFDDYPASGEKMGEHLLNARSIWETMRFVLTQPRSCHINAIHFQGPTRTDIGPY”, the “soluble on expression in E. coli” value is “not soluble”.

Consider “MGSDKIHHHHHHLAQLYFYYSSMNAGKSTSLLQSSYNYRERGMNTLVMTASIDDRYGKGKVASRIGIETEAQVFSSQDDLTQMISDVHQATPLSCVLVDECQFLSKEQVKQLTHVVDNIDIPVLCYGLRTDFQGELFSGSHYLLAWADKLVELKTICHCGRKANMVVRLDGDGKVMREGEQVAIGGNESYESVCRKHFREFIWD”, for which the “soluble on expression in E. coli” value is on record as “not soluble”.

In the case of “GPGSMAPLPRKALLAITSAHPPFWPDGKRTGLFFSEALHPFNELTAAGFEVDVASETGTFGWDEHSLTQEYLSKEDEKVLHSEHNHFMEKMNKQVFKAGDLAPHDYGLMFVCGGHGALYDFPHAKHLQNIAQDIYKRGGVIGAVCHGPAMLPGIHDENGDSVIKDKTVTGFTTKGEIMIKVIDKMREDHLHTIADMAQTANAEYVPPEDPWDDFCKVDGRIVTGANPQSATNTARDTIKVYEGIVNE”, the “soluble on expression in E. coli” value is “soluble”.

For the sequence “MGSDKIHHHHHHMGSFALPANAQCEAKNDAFQSGEHVMYDLYFNWKFVWVKAGIASLTTNATTYHSEPAYRINLLALGSKRADFFFKMRDTLTCVMGEKLEPRYFRKGAEEGKRYTVDEAWFSYKDGLCFAKQKRTFRDGEVQESEESDSRCIYDMLTILAQARSYDPADYKVGDKIKFPMATGRKVEEQTLIYRGKENVKAENGVTYRCLIFSLVEYDKKGKEKEVITFFVTDDKNHLPVRLDMFLNFGSAKAFLNDVRGHRHPLTSIVK”, the “soluble on expression in E. coli” value is on record as “not soluble”.

With “MLLTNKGDVMLGLKQVHHIAIIATDYAVSKAFYCDILGFTLQSEVYREARDSWKGDLALNGQYVIELFSFPFPPERPSRPEACGLRHLAFSVDDIDAAVAHLESHNVKCEAIRVDPYTQKRFTFFNDPDGLPLELYEQ”, the “soluble on expression in E. coli” value is “not soluble”.

For the sequence “MDNEMNYGSDYKFIPATSIESGHGIEVLRDLFCYTIQIVNICFVGNPETNDFVLVDAGMPKCANEIISIAKDRFGTNSRPKAIILTHGHFDHVGGIIELIKHWDVHVYAHQMEIPFLTGQQSYPEPDPTVEGGMVAKMSPLFPNEPIDLGNNVKALPTDGTVPHMPEFRWIHTPGHTPGHISLFREKDRTLIAGDAFVTVKQEYLYKVITQEQEISGPPRYLTTDWKAAKESVLKLEKLKPLTAVTGHGIPMSGELLSTSLKTLVQEFDKIAVPDYGKYIDKKMHLEHHHHHH”, the “soluble on expression in E. coli” value is “soluble”.

For “MAAAAELRLLEKSLGLKPGNKYSAQGERQIPVLQTNNGPSLMGLSTIATHLVKQASKEHLLGSTAEEKAMVQQWLEFRVTRVDGHSSKEDTQTLLKDLNSYLEDKVYLAGHNITLADILLYYGLHRFIVDLTVQEKEKYLNVSRWFCHIQHYPDIRQHLSSIVFIKNRLYANSH”, the “soluble on expression in E. coli” value was “not soluble”.

As to “MDINKMTYAVQSALQQAVELSQQHKLQNIEIEAILSAALNESESLYKSILERANIEVDQLNKAYEDKLNTYASVEGDNIQYGQYISQQANQLITKAESYMKEYEDEYISMEHILRSAMDIDQTTKHYINNKVEVIKEIIKKVRGGNHVTSQNPEVNYEALAKYGRDLVEEVRQGKMDPVIGRDEEIRNTIRILSRKTKNNPVLIGEPGVGKTAIVEGLAQRIVKKDVPESLLDKTVFELDLSALVAGAKYRGEFEERLKAVLKEVKESDGRIILFIDEIHMLVGAGKTDGAMDAGNMLKPMLARGELHCIGATTLNEYREYIEKDSALERRFQKVAVSEPDVEDTISILRGLKERYEVYHGVRIQDRALVAAAELSDRYITDRFLPDKAIDLVDQACATIRTEMGSNPTELDQVNRRVMQLEIEESALKNESDNASKQRLQELQEELANEKEKQAALQSRVESEKEKIANLQEKRAQLDESRQALEDAQTNNNLEKAAELQYGTIPQLEKELRELEDNFQDEQGEDTDRMIREVVTDEEIGDIVSQWTGIPVSKLVETEREKLLHLSDILHKRVVGQDKAVDLVSDAVVRARAGIKDPNRPIGSFLFLGPTGVGKTELAKSLAASLFDSEKHMIRIDMSEYMEKHAVSRLIGAPPGYIGHDEGGQLTEAVRRNPYSVILLDEVEKAHTDVFNVLLQILDEGRLTDSKGRSVDFKNTIIIMTSNIGSQVLLENVKETGEITESTEKAVMTSLNAYFKPEILNRMDDIVLFKPLSIDDMSMIVDKILTQLNIRLLEQRISIEVSDDAKAWLGQEAYEPQYGARPLKRFVQRQIETPLARMMIKEGFPEGTTIKVNLNSDNNLTFNVEKIHE”, the “soluble on expression in E. coli” value was “not soluble”.

For the sequence “MGSDKIHHHHHHMEVFMITKRPIYNQQLKCVAFEILSCRNVMLNEELTRQLYDLIYHTDTQLPLFVPFSLKKLLEQFETPINNPIILKLSADEIESVYSLTELQDSLFSIALLINTPQQLAWLNFAEYIGLTEQLMSKSDVTKVVQYSKAKNRKIIAYDLNQHVNFEKCKAMTMDYYCGDFLLNSIAEEGTEIAANKLNVLQLIQELQKEDCDLNEITHIIQADPLLSYQLLKLVNSVGFSSGPSIESIDQAVARLGIINLKKWVMLFSMKNISDKPIEVLESGLIRAHMAEELAKKSSNIFSQSAYTAGLLSILDCLLNKPMPALVEQITLAEEIKDALTNKSGPLGDLLSLVIAYEEGHWEEVTQLNINGIDLSQLYIDSLALVSQGTKIMSN”, the “soluble on expression in E. coli” value is “not soluble”.

These data come from the DeepSol protein solubility set.
